The values that follow come from US20250326843A1 (published 2025).

One experiment deals with CD3 on human T cells (human, UniProt P07766 23-207). As to the kind of experiment: flow cytometry; T cells. (In general: Flow cytometry measures light scatter and fluorescence of single cells or particles in a stream.)
The next experiment addresses T1, murine B7-H4 (murine, UniProt Q7TSP5 25-257).
T1 chain: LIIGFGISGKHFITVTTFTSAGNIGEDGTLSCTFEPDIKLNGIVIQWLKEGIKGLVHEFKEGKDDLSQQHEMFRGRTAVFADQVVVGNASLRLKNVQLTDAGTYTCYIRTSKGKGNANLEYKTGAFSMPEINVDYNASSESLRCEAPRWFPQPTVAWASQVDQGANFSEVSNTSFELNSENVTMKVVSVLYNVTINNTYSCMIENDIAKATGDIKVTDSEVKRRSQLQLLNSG
The experiment can be described thus: flow cytometry; CHO-K1/m B7H4 cells.

The target of a further experiment is T2, human B7-H4 (human, UniProt Q7Z7D3 25-282).
T2 chain: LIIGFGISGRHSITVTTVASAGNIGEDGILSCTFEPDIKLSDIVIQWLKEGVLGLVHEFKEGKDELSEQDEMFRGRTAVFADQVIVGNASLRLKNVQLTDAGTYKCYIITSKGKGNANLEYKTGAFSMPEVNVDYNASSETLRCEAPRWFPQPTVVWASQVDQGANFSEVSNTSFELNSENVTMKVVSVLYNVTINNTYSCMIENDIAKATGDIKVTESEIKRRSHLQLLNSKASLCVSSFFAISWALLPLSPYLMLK
As to the kind of experiment: flow cytometry; CHO-K1/hu B7H4 cells.

The next experiment has as its target T3, cynomolgus monkey B7-H4 (cynomolgus monkey, UniProt A0A2K5U6P5 25-282).
T3 chain: T2 chain with L53I, F242L, S252A
The experiment can be described thus: flow cytometry; CHO-K1/cyno B7H4 cells.

The target of another experiment is human 4-1BB (human, UniProt Q07011 24-255). The experiment can be described thus: flow cytometry.
Chain of human 4-1BB (Q07011 24-255): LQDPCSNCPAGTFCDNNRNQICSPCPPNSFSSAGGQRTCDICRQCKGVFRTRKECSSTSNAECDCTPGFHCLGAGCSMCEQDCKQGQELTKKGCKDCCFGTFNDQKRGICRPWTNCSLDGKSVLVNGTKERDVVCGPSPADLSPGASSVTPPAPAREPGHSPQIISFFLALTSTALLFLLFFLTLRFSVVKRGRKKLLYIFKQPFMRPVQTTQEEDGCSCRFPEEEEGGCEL

Residue numbers refer to the chain shown, from its start.

Chain of CD3 on human T cells (P07766 23-207): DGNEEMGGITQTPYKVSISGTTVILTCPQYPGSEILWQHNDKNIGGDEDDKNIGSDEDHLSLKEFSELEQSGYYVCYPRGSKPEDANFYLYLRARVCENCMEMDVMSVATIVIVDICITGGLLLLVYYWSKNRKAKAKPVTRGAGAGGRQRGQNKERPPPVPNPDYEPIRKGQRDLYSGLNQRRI

B1: B7-H4×CD3 bispecific antibody PR003733 (bispecific antibody)
light: QAVVTQEPSLTVSPGGTVTLTCRSSTGAVTTSNYANWVQQKPGQAPRGLIGGTNKRAPWTPARFSGSLLGDKAALTLLGAQPEDEAEYFCALWYSNLWVFGGGTKLTVLGQPKAAPSVTLFPPSSEELQANKATLVCLISDFYPGAVTVAWKADSSPVKAGVETTTPSKQSNNKYAASSYLSLTPEQWKSHRSYSCQVTHEGSTVEKTVAPTECS
heavy: not shown
chain: EIVMTQSPASLSVSPGERATLSCRASQSVSSNLAWYQQKPGQAPRLLIYGASTRATGIPARVSGGGSGTEFTLTISSLQSEDFAVYYCQQYKNWPFTFGPGTKLEIKGGGGSGGGGSGGGGSGGGGSQVQLVQSGAEVKKPGSSMRVSCKASEDTFSSYAISWVRQAPGQGLEWMGGTAPIFGTTNYAQKFQGRVTITADKSTSTAYMELSSLRSEDTAVYYCARGGPYFDYWGQGTLVTVSSASEPKSSDKTHTCPPCPAPEAAGGPSVFLFPPKPKDTLMISRTPEVTCVVVDVSHEDPEVKFNWYVDGVEVHNAKTKPREEQYNSTYRVVSVLTVLHQDWLNGKEYKCKVSNKALPAPIEKTISKAKGQPREPQVCTLPPSREEMTKNQVSLSCAVKGFYPSDIAVEWESNGQPENNYKTTPPVLDSDGSFFLVSKLTVDKSRWQQGNVFSCSVMHEALHNHYTQKSLSLSPGK
Take B1: the EC50 in the experiment with CD3 on human T cells is about 59.3 nM; with murine B7-H4, about 250 nM; in the experiment with human B7-H4 it was 7.7 nM; with cynomolgus monkey B7-H4 it was 5.83 nM.

B2: B7-H4×CD3 bispecific antibody PR003899 (bispecific antibody)
light: B1 light
heavy: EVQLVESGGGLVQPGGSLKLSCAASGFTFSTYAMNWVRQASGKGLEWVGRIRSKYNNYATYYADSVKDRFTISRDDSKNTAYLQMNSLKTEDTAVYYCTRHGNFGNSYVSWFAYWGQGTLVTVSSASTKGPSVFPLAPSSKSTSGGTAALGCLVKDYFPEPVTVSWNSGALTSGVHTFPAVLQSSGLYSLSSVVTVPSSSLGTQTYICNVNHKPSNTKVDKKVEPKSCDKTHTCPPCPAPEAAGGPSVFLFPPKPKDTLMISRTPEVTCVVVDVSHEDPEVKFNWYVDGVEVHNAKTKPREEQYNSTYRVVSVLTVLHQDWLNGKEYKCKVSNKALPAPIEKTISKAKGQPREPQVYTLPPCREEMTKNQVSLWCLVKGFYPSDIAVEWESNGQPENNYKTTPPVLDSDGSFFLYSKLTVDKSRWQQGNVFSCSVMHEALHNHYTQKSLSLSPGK
chain: B1 chain
Consider B2, for which the EC50 was about 201 nM in the experiment with CD3 on human T cells, about 62.5 nM in the experiment with murine B7-H4, 6.06 nM with human B7-H4 and 4.96 nM with cynomolgus monkey B7-H4.

B3: Urelumab (antibody, V domains shown)
VH: QVQLQQWGAGLLKPSETLSLTCAVYGGSFSGYYWSWIRQSPEKGLEWIGEINHGGYVTYNPSLESRVTISVDTSKNQFSLKLSSVTAADTAVYYCARDYGPGNYDWYFDLWGRGTLVTVSS
VL: EIVLTQSPATLSLSPGERATLSCRASQSVSSYLAWYQQKPGQAPRLLIYDASNRATGIPARFSGSGSGTDFTLTISSLEPEDFAVYYCQQRSNWPPALTFGGGTKVEIK
The molecule B3 yielded an EC50 with human 4-1BB of 1.63 nM.

For orientation: EC50 means the concentration at which the effect is half-maximal.
